Results as given in US9175313B2, “Three-dimensional structure of isoprene synthase and its use thereof for generating variants” (Danisco US Inc., priority 2009, dated 2015).

Assay: DMAPP assay of site evaluation library (SEL) lysates with ELISA protein quantitation: specific activity ranked as performance index
Assay type: biochemical
Conditions: primary SEL screen; activity on DMAPP per unit weight relative to the parental molecule (parent = 1)
Experimental: 1. Prepared Patch Plates from Glycerol Stock Plates. Using a V&S 96 pin Replication Tool, cultures were patched onto a LB Agar 35 CMP/50 Kan large patch plates from overnight glycerol stock plates. Plates were incubated at 30° C. overnight for 20 to 24 hr. Cultures can be stored at 4° C. for up to a week.
2. Prepared Overnight Growth Plates. 500 mL of LB 35 CMP/50 Kan media were prepared. 300 μL/well of LB 35 CMP/50 Kan media were dispensed into deep 96 well plates (VWR). Using a V&S Replication Tool, the patch inoculum was transferred into deep 96 well plate by touching the tool pins to respective patch and using a circular motion to coat the pins with inoculum. The media was inoculated by dipping the tool then shaking the pin within the well. The overnight growth plates were sealed using a Breathe-Easier Sealing Membrane (Diversified Biotech). The plates were incubated in a Vertiga Shaking Incubator at 30° C. with shaking at 800 rpm overnight for 16 to 18 hr.
3. Prepared Day Growth Plate. Deep 96 well plates were prepared by dispensing 588 μL/well of LB 35 CMP/50 Kan media. Overnight growth plates were removed from the incubator. Overnight cultures were diluted 50-fold and 12 μL of overnight culture were transferred to day growth plates containing 588 μL/well of LB media containing antiobiotics. Overnight growth plates were sealed with new Breathe-Easier Sealing Membranes. Cultures were incubated at 30° C. and 800 rpm for 2.5 hr. Frozen 12 mM IPTG (Sigma) vials were removed from −20° C. and placed in a hood to thaw.
4. OD600 Plate Read of Overnight, Induction, and Harvest. 150 μL 1×PBS were dispensed into 96 well Costar Read Plates (#9017). 50 μL of culture samples were transferred to Read Plates. The OD600 reading was recorded using a Spectramax Plate Reader (Molecular Devices).
5. Induction. Electronic multi-channel pipettors were prepared to dispense 4×20 μL/well of IPTG (if 4× replicates). The multi-dispense option in the electronic pipettor was adjusted if more replicates was necessary. Thawed 12 mM IPTG was poured into 50 mL or 100 mL sterile reservoirs. 20 μL/well of IPTG into each 600 μL/well culture. Overnight growth plates were resealed. Cultures were incubated at 30° C. and 800 rpm for 4 hr. OD600 readings of plates were recorded according instructions above.
6. Harvest. 400 μL of induced culture were transferred to 800 μL Grenier storage plates. Plates were centrifuged at 3300 rpm for 20 min at 2° to 8° C. in a low speed benchtop centrifuge. Supernatants were discarded, pellets should stay in the conical bottom well. Residual supernatants were slapped out onto a paper towel on the benchtop. Plates were sealed with an aluminum foil membrane (Beckman-Coulter). Plates were covered with a plastic plate lid if available. Storage plates were labeled accordingly and stored frozen at −80° C.
Plates containing induced cell pellets were removed from the −80° C. freezer and allowed to thaw on the benchtop for 30 minutes prior to lysis. 200 μl of lysis buffer (50 mM Tris pH 8, 25 mM MgCl2, 74 μg/ml DNase I, 250 U/ml lysozyme, 0.1% Tween 20, 0.5 mM PMSF) was added to each pellet, and plates were incubated on an Eppendorf Thermomixer at 25° C. for 30 minutes at 1200 rpm. After lysis, plates were centrifuged at 3450 rpm for 15 minutes at 4° C. Supernatants were then removed and diluted 10-fold prior to DMAPP assay. 80 μl of the diluted supernatant was added to 20 μl of the DMAPP working stock (20 mM DMAPP in 0.1 M Phosphate Buffer pH 8.2, DMAPP triammonium salt, Cayman chemicals) in a Zinsser glass block. Blocks were then sealed with aluminum sealing membranes, and incubated in Thermomixers at 25° C. for 30 minutes at 450 rpm. Reactions were stopped by incubating blocks on Thermomixers at 70° C. for 12 minutes at 450 rpm. GC-MS was then used for headspace measurements to calculate the amount of isoprene produced by each lysates.
Headspace Assay. […]

Row | Molecule | performance index
1 | D345L: P. alba IspS variant (protein, UniProt Q50L36 38-595, looked up, variant D345L) Isoprene synthase, …: CSVSTENVSFTETETEARRSANYEPNSWDYDYLLSSDTDESIEVYKDKAKKLEAEVRREINNEKAEFLTLLELIDNVQRLGLGYRFESDIRGALDRFVSSGGFDAVTKTSLHGTALSFRLLRQHGFEVSQEAFSGFKDQNGNFLENLKEDIKAILSLYEASFLALEGENILDEAKVFAISHLKELSEEKIGKELAEQVNHALELPLHRRTQRLEAVWSIEAYRKKEDANQVLLELAILDYNMIQSVYQRDLRETSRWWRRVGLATKLHFARDRLIESFYWAVGVAFEPQYSDCRNSVAKMFSFVTIILDIYDVYGTLDELELFTDAVERWDVNAINDLPDYMKLCFLALYNTINEIAYDNLKDKGENILPYLTKAWADLCNAFLQEAKWLYNKSTPTFDDYFGNAWKSSSGPLQLVFAYFAVVQNIKKEEIENLQKYHDTISRPSHIFRLCNDLASASAEIARGETANSVSCYMRTKGISEELATESVMNLIDETWKKMNKEKLGGSLFAKPFVETAINLARQSHCTYHNGDAHTSPDELTRKRVLSVITEPILPFER | 0.65
2 | D345E: P. alba IspS variant (protein, UniProt Q50L36 38-595, looked up, variant D345E) Isoprene synthase, …: CSVSTENVSFTETETEARRSANYEPNSWDYDYLLSSDTDESIEVYKDKAKKLEAEVRREINNEKAEFLTLLELIDNVQRLGLGYRFESDIRGALDRFVSSGGFDAVTKTSLHGTALSFRLLRQHGFEVSQEAFSGFKDQNGNFLENLKEDIKAILSLYEASFLALEGENILDEAKVFAISHLKELSEEKIGKELAEQVNHALELPLHRRTQRLEAVWSIEAYRKKEDANQVLLELAILDYNMIQSVYQRDLRETSRWWRRVGLATKLHFARDRLIESFYWAVGVAFEPQYSDCRNSVAKMFSFVTIIEDIYDVYGTLDELELFTDAVERWDVNAINDLPDYMKLCFLALYNTINEIAYDNLKDKGENILPYLTKAWADLCNAFLQEAKWLYNKSTPTFDDYFGNAWKSSSGPLQLVFAYFAVVQNIKKEEIENLQKYHDTISRPSHIFRLCNDLASASAEIARGETANSVSCYMRTKGISEELATESVMNLIDETWKKMNKEKLGGSLFAKPFVETAINLARQSHCTYHNGDAHTSPDELTRKRVLSVITEPILPFER | 0.61
3 | D345N: P. alba IspS variant (protein, UniProt Q50L36 38-595, looked up, variant D345N) Isoprene synthase, …: CSVSTENVSFTETETEARRSANYEPNSWDYDYLLSSDTDESIEVYKDKAKKLEAEVRREINNEKAEFLTLLELIDNVQRLGLGYRFESDIRGALDRFVSSGGFDAVTKTSLHGTALSFRLLRQHGFEVSQEAFSGFKDQNGNFLENLKEDIKAILSLYEASFLALEGENILDEAKVFAISHLKELSEEKIGKELAEQVNHALELPLHRRTQRLEAVWSIEAYRKKEDANQVLLELAILDYNMIQSVYQRDLRETSRWWRRVGLATKLHFARDRLIESFYWAVGVAFEPQYSDCRNSVAKMFSFVTIINDIYDVYGTLDELELFTDAVERWDVNAINDLPDYMKLCFLALYNTINEIAYDNLKDKGENILPYLTKAWADLCNAFLQEAKWLYNKSTPTFDDYFGNAWKSSSGPLQLVFAYFAVVQNIKKEEIENLQKYHDTISRPSHIFRLCNDLASASAEIARGETANSVSCYMRTKGISEELATESVMNLIDETWKKMNKEKLGGSLFAKPFVETAINLARQSHCTYHNGDAHTSPDELTRKRVLSVITEPILPFER | 0.58
4 | D345T: P. alba IspS variant (protein, UniProt Q50L36 38-595, looked up, variant D345T) Isoprene synthase, …: CSVSTENVSFTETETEARRSANYEPNSWDYDYLLSSDTDESIEVYKDKAKKLEAEVRREINNEKAEFLTLLELIDNVQRLGLGYRFESDIRGALDRFVSSGGFDAVTKTSLHGTALSFRLLRQHGFEVSQEAFSGFKDQNGNFLENLKEDIKAILSLYEASFLALEGENILDEAKVFAISHLKELSEEKIGKELAEQVNHALELPLHRRTQRLEAVWSIEAYRKKEDANQVLLELAILDYNMIQSVYQRDLRETSRWWRRVGLATKLHFARDRLIESFYWAVGVAFEPQYSDCRNSVAKMFSFVTIITDIYDVYGTLDELELFTDAVERWDVNAINDLPDYMKLCFLALYNTINEIAYDNLKDKGENILPYLTKAWADLCNAFLQEAKWLYNKSTPTFDDYFGNAWKSSSGPLQLVFAYFAVVQNIKKEEIENLQKYHDTISRPSHIFRLCNDLASASAEIARGETANSVSCYMRTKGISEELATESVMNLIDETWKKMNKEKLGGSLFAKPFVETAINLARQSHCTYHNGDAHTSPDELTRKRVLSVITEPILPFER | 0.56
5 | D345Q: P. alba IspS variant (protein, UniProt Q50L36 38-595, looked up, variant D345Q) Isoprene synthase, …: CSVSTENVSFTETETEARRSANYEPNSWDYDYLLSSDTDESIEVYKDKAKKLEAEVRREINNEKAEFLTLLELIDNVQRLGLGYRFESDIRGALDRFVSSGGFDAVTKTSLHGTALSFRLLRQHGFEVSQEAFSGFKDQNGNFLENLKEDIKAILSLYEASFLALEGENILDEAKVFAISHLKELSEEKIGKELAEQVNHALELPLHRRTQRLEAVWSIEAYRKKEDANQVLLELAILDYNMIQSVYQRDLRETSRWWRRVGLATKLHFARDRLIESFYWAVGVAFEPQYSDCRNSVAKMFSFVTIIQDIYDVYGTLDELELFTDAVERWDVNAINDLPDYMKLCFLALYNTINEIAYDNLKDKGENILPYLTKAWADLCNAFLQEAKWLYNKSTPTFDDYFGNAWKSSSGPLQLVFAYFAVVQNIKKEEIENLQKYHDTISRPSHIFRLCNDLASASAEIARGETANSVSCYMRTKGISEELATESVMNLIDETWKKMNKEKLGGSLFAKPFVETAINLARQSHCTYHNGDAHTSPDELTRKRVLSVITEPILPFER | 0.56
6 | D345G: P. alba IspS variant (protein, UniProt Q50L36 38-595, looked up, variant D345G) Isoprene synthase, …: CSVSTENVSFTETETEARRSANYEPNSWDYDYLLSSDTDESIEVYKDKAKKLEAEVRREINNEKAEFLTLLELIDNVQRLGLGYRFESDIRGALDRFVSSGGFDAVTKTSLHGTALSFRLLRQHGFEVSQEAFSGFKDQNGNFLENLKEDIKAILSLYEASFLALEGENILDEAKVFAISHLKELSEEKIGKELAEQVNHALELPLHRRTQRLEAVWSIEAYRKKEDANQVLLELAILDYNMIQSVYQRDLRETSRWWRRVGLATKLHFARDRLIESFYWAVGVAFEPQYSDCRNSVAKMFSFVTIIGDIYDVYGTLDELELFTDAVERWDVNAINDLPDYMKLCFLALYNTINEIAYDNLKDKGENILPYLTKAWADLCNAFLQEAKWLYNKSTPTFDDYFGNAWKSSSGPLQLVFAYFAVVQNIKKEEIENLQKYHDTISRPSHIFRLCNDLASASAEIARGETANSVSCYMRTKGISEELATESVMNLIDETWKKMNKEKLGGSLFAKPFVETAINLARQSHCTYHNGDAHTSPDELTRKRVLSVITEPILPFER | 0.55
7 | D345V: P. alba IspS variant (protein, UniProt Q50L36 38-595, looked up, variant D345V) Isoprene synthase, …: CSVSTENVSFTETETEARRSANYEPNSWDYDYLLSSDTDESIEVYKDKAKKLEAEVRREINNEKAEFLTLLELIDNVQRLGLGYRFESDIRGALDRFVSSGGFDAVTKTSLHGTALSFRLLRQHGFEVSQEAFSGFKDQNGNFLENLKEDIKAILSLYEASFLALEGENILDEAKVFAISHLKELSEEKIGKELAEQVNHALELPLHRRTQRLEAVWSIEAYRKKEDANQVLLELAILDYNMIQSVYQRDLRETSRWWRRVGLATKLHFARDRLIESFYWAVGVAFEPQYSDCRNSVAKMFSFVTIIVDIYDVYGTLDELELFTDAVERWDVNAINDLPDYMKLCFLALYNTINEIAYDNLKDKGENILPYLTKAWADLCNAFLQEAKWLYNKSTPTFDDYFGNAWKSSSGPLQLVFAYFAVVQNIKKEEIENLQKYHDTISRPSHIFRLCNDLASASAEIARGETANSVSCYMRTKGISEELATESVMNLIDETWKKMNKEKLGGSLFAKPFVETAINLARQSHCTYHNGDAHTSPDELTRKRVLSVITEPILPFER | 0.51
